In publication PMC3089482 (Nucleic Acids Research, 2011):

Biological target: T1, Archaeoglobus fulgidus PCNA (Archaeoglobus fulgidus, UniProt O29912)
T1 sequence: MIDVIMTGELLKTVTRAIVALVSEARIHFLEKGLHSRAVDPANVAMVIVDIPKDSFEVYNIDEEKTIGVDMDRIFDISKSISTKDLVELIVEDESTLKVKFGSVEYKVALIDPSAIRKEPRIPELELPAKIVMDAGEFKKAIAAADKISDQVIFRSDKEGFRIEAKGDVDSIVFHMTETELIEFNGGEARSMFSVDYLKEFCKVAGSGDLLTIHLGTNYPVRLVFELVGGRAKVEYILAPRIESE
Experiment: pull-down

B1: GST-RNase HII hinge deletion mutant (ΔSNLR) (enzyme)
chain: MKAGIDEAGKGCVIGPLVVAGVACSDEDRLRKLGVKDSKKLSQGRREELAEEIRKICRTEVLKVSPENLDERMAAKTINEILKECYAEIILRLKPEIAYVDSPDVIPERLSRELEEITGLRVVAEHKADEKYPLVAAASIIAKVEREREIERLKEKFGDFGSGYASDPRTREVLKEWIASGRIPSCVRMRWKTVQKTLDDF
- binding result: binds
